Laboratory results: the RNAGym collection of RNA variant scans (doi:10.7554/elife.90254)

B1: LINE1-full (parent)
chain: UACGUAGGUGGUUUUCCCCUGAUAGUGCUAAGGGGGCCUGGAAGUUUGGACUGGGCAGAGCUCAACACAGCGUGGCAAAGUGGCUGUGGCUAGACUGCCUCUCUGGAUUCCUCGUCACUCAGCAGGGCAUCUCUGAGAGAAAUGCC

Variants of: B1
Assay: self-cleavage, relative activity (ratio to wild type); higher = more cleavage; in vitro, sequencing; the parent is a self-cleaving ribozyme

Q: For UACGUAGGUGGCUUUCCCCUGAUAGUGCUAAGGGGGCCUGGAAGUUUGGACUGGGCAGAGCUCAACACAGCGUGGCAAAGUGGCUGUGGCUAGACUGCCUCUCUGGAUUCCUCGUCACACAGCAGGGCAUCUCUGAGAGAAAUGCC, which self-cleavage is on record?
A: Its self-cleavage is 1.78.

Q: With UACGUAGGUGGCUUUCCCCUGAUAGUGCUAAGGGGGCCUGGAAGUUUGGACUGGGCAGAGCUCAACACAGCGUGGCAAAGUGGCUGUGGCUAGACUGCCUCUCUGGAUUCCUCGUCACUCAGCAGGGCACCUCUGAGAGAAAUGCC as the variant, how does the self-cleavage read?
A: The self-cleavage was 1.4.

Q: Which self-cleavage does the source give for UACGUAGGUGGCUUUCCCCUGAUAGUGCUAAGGGGGCCUGGAAGUUUGGACUGGGCAGAGCUCAACACAGCGUGGCAAAGUGGCUGUGGCUAGACUGCCUCUCUGGAUUCCUCGUCACUCAGCAGGGCAUCACUGAGAGAAAUGCC here?
A: Its self-cleavage is 1.31.

Q: For UACGUAGGUGGCUUUCCCCUGAUAGUGCUAAGGGGGCCUGGAAGUUUGGACUGGGCAGAGCUCAACACAGCGUGGCAAAGUGGCUGUGGCUAGACUGCCUCUCUGGAUUCCUCGUCACUCAGCAGGGCAUCCCUGAGAGAAAUGCC, which self-cleavage is on record?
A: The self-cleavage was 1.13.

Q: Which self-cleavage does the source give for UACGUAGGUGGCUUUCCCCUGAUAGUGCUAAGGGGGCCUGGAAGUUUGGACUGGGCAGAGCUCAACACAGCGUGGCAAAGUGGCUGUGGCUAGACUGCCUCUCUGGAUUCCUCGUCACUCAGCAGGGCAUCUCCGAGAGAAAUGCC here?
A: Its self-cleavage is 1.3.

Q: With UACGUAGGUGGCUUUCCCCUGAUAGUGCUAAGGGGGCCUGGAAGUUUGGACUGGGCAGAGCUCAACACAGCGUGGCAAAGUGGCUGUGGCUAGACUGCCUCUCUGGAUUCCUCGUCACUCAGCAGGGCAUCUCGGAGAGAAAUGCC as the variant, how does the self-cleavage read?
A: Its self-cleavage is 1.97.

Q: For UACGUAGGUGGCUUUCCCCUGAUAGUGCUAAGGGGGCCUGGAAGUUUGGACUGGGCAGAGCUCAACACAGCGUGGCAAAGUGGCUGUGGCUAGACUGCCUCUCUGGAUUCCUCGUCACUCAGCAGGGCAUCUCUGAGAGAAAAGCC, which self-cleavage is on record?
A: The self-cleavage was 1.25.

Q: Which self-cleavage does the source give for UACGUAGGUGGGUUUCCCCUGAUAGUGCUAAGGGGGCCUGGAAGUUUGGACUGGGCAGAGCUCAACACAGCGUGGCAAAGUGGCUGUGGCUAGACUGCCUCUCUGGAUUCCUCGUCACUCAGCAGGGCAUCUCUGAGAGAAAUGCC here?
A: Its self-cleavage is 1.13.

Q: With UACGUAGGUGGGUUUCCCCUGGUAGUGCUAAGGGGGCCUGGAAGUUUGGACUGGGCAGAGCUCAACACAGCGUGGCAAAGUGGCUGUGGCUAGACUGCCUCUCUGGAUUCCUCGUCACUCAGCAGGGCAUCUCUGAGAGAAAUGCC as the variant, how does the self-cleavage read?
A: The self-cleavage was 1.04.

Q: For UACGUAGGUGGGUUUCCCCUGAUUGUGCUAAGGGGGCCUGGAAGUUUGGACUGGGCAGAGCUCAACACAGCGUGGCAAAGUGGCUGUGGCUAGACUGCCUCUCUGGAUUCCUCGUCACUCAGCAGGGCAUCUCUGAGAGAAAUGCC, which self-cleavage is on record?
A: Its self-cleavage is 1.5.

Q: For UACGUAGGUGGGUUUCCCCUGAUAGUGCUGAGGGGGCCUGGAAGUUUGGACUGGGCAGAGCUCAACACAGCGUGGCAAAGUGGCUGUGGCUAGACUGCCUCUCUGGAUUCCUCGUCACUCAGCAGGGCAUCUCUGAGAGAAAUGCC, which self-cleavage is on record?
A: Its self-cleavage is 1.2.

Q: For UACGUAGGUGGGUUUCCCCUGAUAGUGCUUAGGGGGCCUGGAAGUUUGGACUGGGCAGAGCUCAACACAGCGUGGCAAAGUGGCUGUGGCUAGACUGCCUCUCUGGAUUCCUCGUCACUCAGCAGGGCAUCUCUGAGAGAAAUGCC, which self-cleavage is on record?
A: The self-cleavage was 0.83.

Q: With UACGUAGGUGGGUUUCCCCUGAUAGUGCUAGGGGGGCCUGGAAGUUUGGACUGGGCAGAGCUCAACACAGCGUGGCAAAGUGGCUGUGGCUAGACUGCCUCUCUGGAUUCCUCGUCACUCAGCAGGGCAUCUCUGAGAGAAAUGCC as the variant, how does the self-cleavage read?
A: The self-cleavage was 0.87.

Q: For UACGUAGGUGGGUUUCCCCUGAUAGUGCUAAGGGGGCCUGGGAGUUUGGACUGGGCAGAGCUCAACACAGCGUGGCAAAGUGGCUGUGGCUAGACUGCCUCUCUGGAUUCCUCGUCACUCAGCAGGGCAUCUCUGAGAGAAAUGCC, which self-cleavage is on record?
A: Its self-cleavage is 1.42.

Q: For UACGUAGGUGGGUUUCCCCUGAUAGUGCUAAGGGGGCCUGGAAGUUUGGACUGGGCUGAGCUCAACACAGCGUGGCAAAGUGGCUGUGGCUAGACUGCCUCUCUGGAUUCCUCGUCACUCAGCAGGGCAUCUCUGAGAGAAAUGCC, which self-cleavage is on record?
A: The self-cleavage was 0.17.

Q: For UACGUAGGUGGGUUUCCCCUGAUAGUGCUAAGGGGGCCUGGAAGUUUGGACUGGGCAGGGCUCAACACAGCGUGGCAAAGUGGCUGUGGCUAGACUGCCUCUCUGGAUUCCUCGUCACUCAGCAGGGCAUCUCUGAGAGAAAUGCC, which self-cleavage is on record?
A: The self-cleavage was 0.23.

Q: With UACGUAGGUGGGUUUCCCCUGAUAGUGCUAAGGGGGCCUGGAAGUUUGGACUGGGCAGAGCUCUACACAGCGUGGCAAAGUGGCUGUGGCUAGACUGCCUCUCUGGAUUCCUCGUCACUCAGCAGGGCAUCUCUGAGAGAAAUGCC as the variant, how does the self-cleavage read?
A: Its self-cleavage is 0.83.

Q: For UACGUAGGUGGGUUUCCCCUGAUAGUGCUAAGGGGGCCUGGAAGUUUGGACUGGGCAGAGCUCAGCACAGCGUGGCAAAGUGGCUGUGGCUAGACUGCCUCUCUGGAUUCCUCGUCACUCAGCAGGGCAUCUCUGAGAGAAAUGCC, which self-cleavage is on record?
A: Its self-cleavage is 0.23.

Q: Which self-cleavage does the source give for UACGUAGGUGGGUUUCCCCUGAUAGUGCUAAGGGGGCCUGGAAGUUUGGACUGGGCAGAGCUCAACGCAGCGUGGCAAAGUGGCUGUGGCUAGACUGCCUCUCUGGAUUCCUCGUCACUCAGCAGGGCAUCUCUGAGAGAAAUGCC here?
A: The self-cleavage was 0.53.

Q: Which self-cleavage does the source give for UACGUAGGUGGGUUUCCCCUGAUAGUGCUAAGGGGGCCUGGAAGUUUGGACUGGGCAGAGCUCAACUCAGCGUGGCAAAGUGGCUGUGGCUAGACUGCCUCUCUGGAUUCCUCGUCACUCAGCAGGGCAUCUCUGAGAGAAAUGCC here?
A: Its self-cleavage is 0.23.

Q: Which self-cleavage does the source give for UACGUAGGUGGGUUUCCCCUGAUAGUGCUAAGGGGGCCUGGAAGUUUGGACUGGGCAGAGCUCAACACGGCGUGGCAAAGUGGCUGUGGCUAGACUGCCUCUCUGGAUUCCUCGUCACUCAGCAGGGCAUCUCUGAGAGAAAUGCC here?
A: Its self-cleavage is 0.77.

Q: With UACGUAGGUGGGUUUCCCCUGAUAGUGCUAAGGGGGCCUGGAAGUUUGGACUGGGCAGAGCUCAACACAGCGUGGCCAAGUGGCUGUGGCUAGACUGCCUCUCUGGAUUCCUCGUCACUCAGCAGGGCAUCUCUGAGAGAAAUGCC as the variant, how does the self-cleavage read?
A: Its self-cleavage is 0.69.

Q: Which self-cleavage does the source give for UACGUAGGUGGGUUUCCCCUGAUAGUGCUAAGGGGGCCUGGAAGUUUGGACUGGGCAGAGCUCAACACAGCGUGGCUAAGUGGCUGUGGCUAGACUGCCUCUCUGGAUUCCUCGUCACUCAGCAGGGCAUCUCUGAGAGAAAUGCC here?
A: The self-cleavage was 0.78.

Q: Which self-cleavage does the source give for UACGUAGGUGGGUUUCCCCUGAUAGUGCUAAGGGGGCCUGGAAGUUUGGACUGGGCAGAGCUCAACACAGCGUGGCAGAGUGGCUGUGGCUAGACUGCCUCUCUGGAUUCCUCGUCACUCAGCAGGGCAUCUCUGAGAGAAAUGCC here?
A: Its self-cleavage is 0.

Q: For UACGUAGGUGGGUUUCCCCUGAUAGUGCUAAGGGGGCCUGGAAGUUUGGACUGGGCAGAGCUCAACACAGCGUGGCAAUGUGGCUGUGGCUAGACUGCCUCUCUGGAUUCCUCGUCACUCAGCAGGGCAUCUCUGAGAGAAAUGCC, which self-cleavage is on record?
A: The self-cleavage was 1.3.

Q: Which self-cleavage does the source give for UACGUAGGUGGGUUUCCCCUGAUAGUGCUAAGGGGGCCUGGAAGUUUGGACUGGGCAGAGCUCAACACAGCGUGGCAAAGUGGCUGUGGCUAGACUGCCUCUCUGGAUUCCUCGUCACUCCGCAGGGCAUCUCUGAGAGAAAUGCC here?
A: The self-cleavage was 1.29.

Q: Which self-cleavage does the source give for UACGUAGGUGGGUUUCCCCUGAUAGUGCUAAGGGGGCCUGGAAGUUUGGACUGGGCAGAGCUCAACACAGCGUGGCAAAGUGGCUGUGGCUAGACUGCCUCUCUGGAUUCCUCGUCACUCGGCAGGGCAUCUCUGAGAGAAAUGCC here?
A: Its self-cleavage is 1.4.

Q: For UACGUAGGUGGGUUUCCCCUGAUAGUGCUAAGGGGGCCUGGAAGUUUGGACUGGGCAGAGCUCAACACAGCGUGGCAAAGUGGCUGUGGCUAGACUGCCUCUCUGGAUUCCUCGUCACUCAGCGGGGCAUCUCUGAGAGAAAUGCC, which self-cleavage is on record?
A: The self-cleavage was 0.84.

Q: With UACGUAGGUGGGUUUCCCCUGAUAGUGCUAAGGGGGCCUGGAAGUUUGGACUGGGCAGAGCUCAACACAGCGUGGCAAAGUGGCUGUGGCUAGACUGCCUCUCUGGAUUCCUCGUCACUCAGCAGGGCUUCUCUGAGAGAAAUGCC as the variant, how does the self-cleavage read?
A: Its self-cleavage is 1.49.

Q: Which self-cleavage does the source give for UACGUAGGUGGGUUUCCCCUGAUAGUGCUAAGGGGGCCUGGAAGUUUGGACUGGGCAGAGCUCAACACAGCGUGGCAAAGUGGCUGUGGCUAGACUGCCUCUCUGGAUUCCUCGUCACUCAGCAGGGCAUCUCUGGGAGAAAUGCC here?
A: Its self-cleavage is 1.72.

Q: With UACGUAGGUGGGUUUCCCCUGAUAGUGCUAAGGGGGCCUGGAAGUUUGGACUGGGCAGAGCUCAACACAGCGUGGCAAAGUGGCUGUGGCUAGACUGCCUCUCUGGAUUCCUCGUCACUCAGCAGGGCAUCUCUGAGGGAAAUGCC as the variant, how does the self-cleavage read?
A: The self-cleavage was 1.29.

Q: For UACGUAGGUGGGUUUCCCCUGAUAGUGCUAAGGGGGCCUGGAAGUUUGGACUGGGCAGAGCUCAACACAGCGUGGCAAAGUGGCUGUGGCUAGACUGCCUCUCUGGAUUCCUCGUCACUCAGCAGGGCAUCUCUGAGAGCAAUGCC, which self-cleavage is on record?
A: The self-cleavage was 0.48.

Q: With UACGUAGGUGGGUUUCCCCUGAUAGUGCUAAGGGGGCCUGGAAGUUUGGACUGGGCAGAGCUCAACACAGCGUGGCAAAGUGGCUGUGGCUAGACUGCCUCUCUGGAUUCCUCGUCACUCAGCAGGGCAUCUCUGAGAGGAAUGCC as the variant, how does the self-cleavage read?
A: The self-cleavage was 0.91.

Q: For UACGUAGGUGGGUUUCCCCUGAUAGUGCUAAGGGGGCCUGGAAGUUUGGACUGGGCAGAGCUCAACACAGCGUGGCAAAGUGGCUGUGGCUAGACUGCCUCUCUGGAUUCCUCGUCACUCAGCAGGGCAUCUCUGAGAGAUAUGCC, which self-cleavage is on record?
A: The self-cleavage was 1.29.

Q: Which self-cleavage does the source give for UACGUAGGUGGGUUUCCCCUGAUAGUGCUAAGGGGGCCUGGAAGUUUGGACUGGGCAGAGCUCAACACAGCGUGGCAAAGUGGCUGUGGUUAGACUGCCUCUCUGGAUUCCUCGUCACUCAGCAGGGCAUCUCUGAGAGAAAUGCC here?
A: The self-cleavage was 0.08.

Q: With UACGUAGGUGGGUUUCCCCUGAUAGUGCUAAGGGGGCCUGGAAGUUUGGACUGGGCAGAGCUCAACACAGCGUGGCAAAGUGGCUGUGGCUAGACUGCAUCUCUGGAUUCCUCGUCACUCAGCAGGGCAUCUCUGAGAGAAAUGCC as the variant, how does the self-cleavage read?
A: The self-cleavage was 0.32.

Q: With UACGUAGGUGGGUUUCCCCUGAUAGUGCUAAGGGGGCCUGGAAGUUUGGACUGGGCAGAGCUCAACACAGCGUGGCAAAGUGGCUGUGGCUAGACUGCCUCUAUGGAUUCCUCGUCACUCAGCAGGGCAUCUCUGAGAGAAAUGCC as the variant, how does the self-cleavage read?
A: Its self-cleavage is 1.15.

Q: With UACGUAGGUGGGUUUCCCCUGAUAGUGCUAAGGGGGCCUGGAAGUUUGGACUGGGCAGAGCUCAACACAGCGUGGCAAAGUGGCUGUGGCUAGACUGCCUCUCUGGAUUCCUAGUCACUCAGCAGGGCAUCUCUGAGAGAAAUGCC as the variant, how does the self-cleavage read?
A: The self-cleavage was 1.84.

Q: Which self-cleavage does the source give for UACGUAGGUGGGUUUCCCCUGAUAGUGCUAAGGGGGCCUGGAAGUUUGGACUGGGCAGAGCUCAACACAGCGUGGCAAAGUGGCUGUGGCUAGACUGCCUCUCUGGAUUCCUCGUCACUCAGCAGGGCAUCUCUGAGAGAAAUGGC here?
A: The self-cleavage was 0.99.
